In article PMC4652344:

Target: sulfonylurea receptor 1 (Sur1) (mouse (endogenous in lumbar spinal cord))
Assay: FRET or BRET; immunoFRET on 7 um cryosections of lumbar spinal cord of pid-30 WT/EAE mice; custom anti-Sur1 and anti-Trpm4 primary antibodies, secondary antibodies conjugated with Cy3 or Cy5; control: omission of one of the two primary antibodies

Sequence of sulfonylurea receptor 1 (Sur1) (mouse (endogenous in lumbar spinal cord)) (B2RUS7 entry or part of it): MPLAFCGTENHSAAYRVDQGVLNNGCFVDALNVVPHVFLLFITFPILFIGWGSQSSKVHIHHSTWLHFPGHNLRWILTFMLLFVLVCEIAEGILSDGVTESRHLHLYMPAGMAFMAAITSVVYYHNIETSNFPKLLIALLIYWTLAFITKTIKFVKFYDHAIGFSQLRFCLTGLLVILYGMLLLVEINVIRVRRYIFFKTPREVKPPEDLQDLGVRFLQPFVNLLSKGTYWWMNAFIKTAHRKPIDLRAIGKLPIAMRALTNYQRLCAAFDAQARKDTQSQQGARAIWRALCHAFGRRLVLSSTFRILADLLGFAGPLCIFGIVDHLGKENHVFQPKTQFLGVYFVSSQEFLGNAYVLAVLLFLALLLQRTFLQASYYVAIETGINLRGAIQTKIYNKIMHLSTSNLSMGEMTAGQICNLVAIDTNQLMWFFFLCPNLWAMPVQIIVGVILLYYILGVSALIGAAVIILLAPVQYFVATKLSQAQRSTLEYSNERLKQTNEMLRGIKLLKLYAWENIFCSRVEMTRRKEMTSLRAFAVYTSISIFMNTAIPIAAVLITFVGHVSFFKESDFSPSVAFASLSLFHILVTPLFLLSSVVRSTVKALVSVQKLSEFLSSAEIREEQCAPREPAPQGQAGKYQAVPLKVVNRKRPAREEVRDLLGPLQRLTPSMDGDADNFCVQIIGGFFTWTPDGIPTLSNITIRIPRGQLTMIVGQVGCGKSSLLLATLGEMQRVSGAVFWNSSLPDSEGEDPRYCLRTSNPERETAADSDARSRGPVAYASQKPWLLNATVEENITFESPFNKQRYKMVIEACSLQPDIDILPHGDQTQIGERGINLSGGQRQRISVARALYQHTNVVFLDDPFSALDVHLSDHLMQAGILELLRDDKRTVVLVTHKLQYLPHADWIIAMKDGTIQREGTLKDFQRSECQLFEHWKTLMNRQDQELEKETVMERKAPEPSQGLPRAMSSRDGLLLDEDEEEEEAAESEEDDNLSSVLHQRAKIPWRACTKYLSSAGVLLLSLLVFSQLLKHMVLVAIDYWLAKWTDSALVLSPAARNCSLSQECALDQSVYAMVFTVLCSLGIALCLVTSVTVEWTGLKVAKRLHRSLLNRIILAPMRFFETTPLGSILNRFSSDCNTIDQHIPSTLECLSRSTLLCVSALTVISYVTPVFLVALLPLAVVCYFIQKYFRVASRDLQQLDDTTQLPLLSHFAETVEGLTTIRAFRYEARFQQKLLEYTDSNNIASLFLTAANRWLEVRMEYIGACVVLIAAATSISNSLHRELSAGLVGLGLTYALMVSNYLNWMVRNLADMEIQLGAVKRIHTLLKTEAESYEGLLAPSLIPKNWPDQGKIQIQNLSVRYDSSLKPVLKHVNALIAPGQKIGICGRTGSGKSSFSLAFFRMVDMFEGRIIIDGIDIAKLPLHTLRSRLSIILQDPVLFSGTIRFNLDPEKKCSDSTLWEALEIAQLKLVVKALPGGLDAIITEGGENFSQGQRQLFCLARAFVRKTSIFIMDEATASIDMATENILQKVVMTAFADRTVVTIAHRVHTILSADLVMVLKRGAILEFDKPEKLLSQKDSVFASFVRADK

FRET efficiency: 10 to 14%
Substance: transient receptor potential melastatin 4 (Trpm4) (from UniProt Q7TN37 1-1213) (natural protein)
